Experimental data as given in a protein production outcome set (Wang et al. 2014).

Assay: label from the status in PepcDB records
With “MSLKYKLIVLDLDGTLTNSKKEISSRNRETLIRIQEQGIRLVLASGRPTYGIVPLANELRMNEFGGFILSYNGGEIINWESKEMMYENVLPNEVVPVLYECARTNHLSILTYDGAEIVTENSLDPYVQKEAFLNKMAIRETNDFLTDITLPVAKCLIVGDAGKLIPVESELCIRLQGKINVFRSEPYFLELVPQGIDKALSLSVLLENIGMTREEVIAIGDGYNDLSMIKFAGMGVAMGNAQEPVKKAADYITLTNDEDGVAEAIERIFNVEGHHHHHH” the protein production was “not failed”.
With “MSLLIRELETNDLDNFPEIDDSFIVNARLMLSLSKVNRRIEYTVEDVPSYEKSYLQNDNEELVYNEYINKPNQIIYIALLHNQIIGFIVLKKNWNNYAYIEDITVDKKYRTLGVGKRLIAQAKQWAKEGNMPGIMLETQNNNVAACKFYEKCGFVIGGFDFLVYKGLNMTSDEVAIYWYLHFDS” the protein production was “failed”.
In the case of “MSLLKNSSYILTLLSLFGFLLTWQRSAFSLFFLIPIFLTLFWEFFLFLKLRKNIIKEATLIKGSLFYRISMGDFYLYIFSFFLAIFGLVSLFLNFLNLEKIDFVFIFIILPLLMIFLKKELHLQFIDNAYNDFRIVVIASFFTALFYAFYGLFFTYNELLNLELFSRKIIAYKSASFVYFDFLSEFLHFVSNLKFFIFSYFGYLGFRALNFIFDFFNFFMFCSLLAFVFNFVLKIKIKIIVLFLCFIMVLGNYFLKEQRNNALKSEQEQILLWMNNFNFLKDNNLSLIQKEKDLFEKDLKDLREIFKKNAFEIGIWWFSKEKEDLEKRINESLK”, the protein production is reported as “failed”.
For “MSLLSLLIALAADRSLSAKVWQFNFYYQHYHHFFSKNFTAKQGTTASAVFIILPVIATYLLLDVIDNSVLQLLFSTVILIVCFGCTTTRKSYKSYLHSAFRGEETTTEMHHEQLLSDKNLPEMGFGQALIWLNYRYYIAIMLFFTVFGAAGAVFYRLLTTVIEHKKAKCMASAAENKAQAEVSSVDESDIESEEHHQAVHEGNVAPNIMNGCQNHHDVLFWLDWLPVRIASFGYMFVGHFSKAMPVWLESLFDSQKPTHQVLIDVAEKSEDLLVNENDCTAEPCLLVRLAKRNVLLVLAVISILTLSGLLN”, the protein production was “failed”.
For “MSLMIKVEDMMTRHPHTLLRTHTLNDAKHLMEALDIRHVPIVDANKKLLGIVSQRDLLAAQESSLQRSAQGDSLAFETPLFEVMHTDVTSVAPQAGLKESAIYMQKHKIGCLPVVAKDVLVGIITDSDFVTIAINLLELQEESEPDELDEEQEGHHHHHH”, the protein production was “not failed”.
For “MSLNGITKYVEKLTFFNIQSGKQVEFNRDEKVILSNVPFIQQLPELDRGCEVTSLAMMLQYAGITVDKMKLANEIKKVDFMNDGVRGNPNEGFVGNIYTFSESGYGVYHGPLFQLAKKYLPNKAVDLTGKSIEELYKSVKAGQPVVIITNATFAPLDEDEFTTWETNNGDVSITYNEHCVVLIGYDQESVYIRDPLKDSLDVKVPREKFEQAWVQMGSQAISYVKRSKEGHHHHHH”, the protein production was “not failed”.
With “MSLNGNGSIELKGTVEEVWSKLMDPSILSKCIMGCKSLELIGEDKYKADLQIGIAAVKGKYDAIIEVTDIKPPYHYKLLVNGEGGPGFVNAEGVIDLTPINDECTQLTYTYSAEVGGKVAAIGQRMLGGVAKLLISDFFKKIQKEIAKSKQEASEGHHHHHH” the protein production was “not failed”.
In the case of “MSLNKQDGENTLQHEKSSSFGYWCSPSPEQLERLSLKQLAAVSNFVIGRRGYGCITFQHDVDLTAFTKSFREELFGKIVIFRSSKTVEVYPDEATKPMIGHGLNVPAIITLENVYPVDKKTKKPMKDTTKFAEFQVFDRKLRSMREMNYISYNPFGGTWTFKVNHFEGHHHHHH”, the protein production is reported as “not failed”.
For “MSLNRRELLERISEYQFACIELNLYLDNNPRDKKALDSYNRYCDKFTQAVCDYESKYGALTNFGYESSEYPWSWISEPWPWDKSFYKLEHHHHHH”, the protein production was “not failed”.
With “MSLNRVFIVDDDTLTCNLLKTIVEPIFGNVEAFQHPRAFLTLSLNKQDIIILDLMMPDMDGIEVIRHLAEHKSPASLILISGYDSGVLHSAETLALSCGLNVINTFTKPINTEVLTCFLTSLSNRQAEGHHHHHH” the protein production was “not failed”.
In the case of “MSLNSEAKSRIACDIDFDRDGRQAGYARAPLSRNNSGWGTVEIPITVVKNGSGPTVLLTGGVHGDEYEGQIAISDLARRLRPEEVQGRVIMLPAVNMPAIQSDTRLSPVDGRDINRCFPGDPRGTFSQMLAHFLDSVILPMADISVDMHTAGHSYDSTPSTNMHYLADPALRARTLAAAEAFGAPHNVVFGGVDEGSTFTSCVERRGIVSLGTELGGWGRVNIEGVRIGKRGILNVLKHMGVIEGTPETAQRGGAAGTRHMMVREADAYVMAPRTGLFEPTHYVGEEVRTGETAGWIHFVEDVDTAPLELLYRRDGIVWFGAGPGRVTRGDAVAVVMEDYNDTWPQEGHHHHHH”, the protein production is reported as “not failed”.
With “MSLPPILTSQIGPDSIELRLLVAADLEYFNGHFPEQAVLPGVTQLDWAVRLGCEHFGYSAAVANLEVLKFQQLILPGQEVTLVISHNATKEKLTFAYSDGDHRYASGRISFASKQDDGLEHHHHHH” the protein production was “failed”.
For “MSLPPSRPETLSIPEALHRAHAHWSAGQAAQAELLCQRVLAAWPGQADALHLLGLMAHAYGHLDLAIAHLRQACLAPRAPAAYSSNLAEMYRQKGLLAEAEDAARRAVAMDPALVSGWNNLGIVLQEAGKFAESLDCLERVILLQPDGAQAHNNLANTLRRLERLERAESHYRQALELDPAYAEAHSNLAFLLSAQGRHDEAAAAAQHAIELSPRLVDAYLNLAEAEMGRHRHEAALRVLDTLSTFAPQHPAALTARANVLKRVERLDEALAVARQAVVLAPRSAEAHHALAMALQTLGQTDEALPHFEQAARLPGAVAEEALVGRATLLMEAGRRDAARAAFDQALEQFPGSVQALAGRADARTFTAGDPDIAALEACLAEGERRSLRDRISAHFALGKAYLDLQDPARAFHHLDAGNRQKRSTFTYDGAASRRWMERIAEAFPPERHDPLHATGEPSALPVFIVGMPRSGTTLIEQIVSSHPQVMGAGELSALRLVVEGSGLFPDGMQRLAGEARGALFRQLGQAYLSRVAPLAQGRARLVDKMPSNFLYARLIPLILPGARIIHARRDPVDTCLSCYTKLFAGEQQFAYDQAELGALYRGYARLMAHWRAVLPPGCFIEVDYEAVVDDLEGEARRLIDFLDLPWNPACLHFHDNRRVVRTASVNQVRQPIYTTSKGRWQAYADYLGPLLEALGVEAP”, the protein production was “failed”.
In the case of “MSLQLDEYLRQLAPSMTQWRRDFHLHAESGWLEFRTASKVADILDGLGYQLALGRDVIDADSRMGLPDEETLARAFERAREQGAPERWLPAFEGGFAGVVATLDTGRPGPTLAFRVDMDALDLNEQHDDSHRPHRDHFASCNAGMMHACGHDGHTAIGLGLAHVLKQYAAQLNGVIKLIFQPAEEGTRGARAMVAAGVVDDVDYFTAIHIGTGVPAGTVVCGGDNFMATTKFDVQFSGVAAHAGGKPEDGRNALLAAAQAALGLHAIPPHSAGASRVNVGVMQAGTGRNVVPSSALLKVETRGESEAINQYVFERAQHVVAGAAAMYEARYELRMMGAATASAPSPAWVDYLREQAARVPGVQQAVDRIAAPAGSEDATLMMARVQARGGLASYMIFGTELSAGHHNEKFDFDESVMAVAVETLARVALNFPWQRGVEGHHHHHH”, the protein production is reported as “not failed”.
For “MSLQRFTNRTIVVAGAGRDIGRACAIRFAQEGANVVLTYNGAAEGAATAVAEIEKLGRSALAIKADLTNAAEVEAAISAAADKFGEIHGLVHVAGGLIARKTIAEMDEAFWHQVLDVNLTSLFLTAKTALPKMAKGGAIVTFSSQAGRDGGGPGALAYATSKGAVMTFTRGLAKEVGPKIRVNAVCPGMISTTFHDTFTKPEVRERVAGATSLKREGSSEDVAGLVAFLASDDAAYVTGACYDINGGVLFSEGHHHHHH”, the protein production was “not failed”.
In the case of “MSLQRLLQHSSNGNLADFCAGPAYSSYSTLTGSLTMDDNRRIQMLADTVATLPRGRKQLALTRSSSLSDFSWSQRKLVTVEKQDNETFGFEIQSYRPQNQNACSSEMFTLICKIQEDSPAHCAGLQAGDVLANINGVSTEGFTYKQVVDLIRSSGNLLTIETLNGTMILKRTELEAKLQVLKQTLKQKWVEYRSLQLQEHRLLHGDAANCPSLENMDLDELSLFGPLPGPGPALVDRNRLSSESSCKSWLSSMTMDSEDGYQTCVSEDSSRGAFSRQTSTDDECFIPKEGDDFLRRSSSRRNRSISNTSSGSMSPLWEGNLSSMFGTLPRKSRKGSVRKQLLKFIPGLHRAVEEEESRF”, the protein production is reported as “not failed”.
In the case of “MSLQSQPIALELIVRNHPGVMTHICGLFARRAFNVDGILCLPMKNSDKSRIWLLVQKDERLMQMVSQVEKLEDVKEVRFSDDLRVFEQMESYLN”, the protein production is reported as “not failed”.
With “MSLQVEGLSINLATIREQCGFAEAVDICLKHGITAIAPWRDQVAAIGLGEAGRIVRANGLKLTGLCRGGFFPAPDASGREKAIDDNRRAVDEAAELGADCLVLVAGGLPGGSKNIDAARRMVVEGIAAVLPHARAAGVPLAIEPLHPMYAADRACVNTLGQALDICETLGPGVGVAIDVYHVWWDPDLANQIARAGKMKAILAHHICDWLVPTKDMLTDRGMMGDGVIDLKGIRRRIEAAGFHGAQEVEIFSADNWWKRPADEVIATCVERYRNEGHHHHHH” the protein production was “not failed”.
In the case of “MSLREVALKILIVEDDTDAREWLSTIISNHFPEVWSAGDGEEGERLFGLHAPDVIITDIRMPKLGGLEMLDRIKAGGAKPYVIVISAFSEMKYFIKAIELGVHLFLPKPIEPGRLMETLEDFRHIKLAKEGHHHHHH”, the protein production is reported as “not failed”.
With “MSLRGSQLGTSRGLMLGGIDLAPVLMVLGLLLSGLGLSMLAPALVDLVVENRDWRAFLGSSVITLFCGMMLTLANWRMPLRFNIRQGFLMTALAWLTMSLFGSMPFMLATTGLDFAGAFFESVSGLTTTGATVISGLEHQPPGILFWRCLLHWIGGIGIIGMAIALLPALRVGGMQLFRTESSDTSEKGMNRIGELGLAITAVYLTLTVVIALGYIAVGMSVFDAICHAFGTVSTGGFSNWDTSLGHLDAAGLWMSTVGMMLGAMPFVLYVQVARGRPMDVVRDPQVQALTGFLVACWLVMALWQSLENGRPFLDALTASAFNITSVVTTTGYASEDYTLWGGFPQLFFFMITFAGGCTGSTSGGIKMFRYQVAYKVLSANIRRRYMPNAVIVSTYGGRAIDEDVAVSVVLFFFATGATTAIIALALTMVGLDWVTALTGTAAAIANVGPGLGTIVGPAGNYATLPDSAKWLLSLAMLMGRLEFFTLLVLFSRDFWKS” the protein production was “failed”.
In the case of “MSLSALESSSRFEVRYFFERALECYKPFSDTVLLLPCTARKPYLTSRTHRALRSKVKVNVNEIIISSPLVVPREFELLYPAVNYDTPVTGHWSEEEVSFVAGWLKRFIEKGGFRKVVAHVTGGYRKVVERVEDEVEAEVVYTAEKDVLSDESIERLKQEIESKGKVDLYRRILEHMLSYQFGITWSGKVAGRYPELELLEGKKRLARVDRIYGMLDIYEKIAAYLLEKNIYTVEIGDFEVKGTIFAGGVLRADEKIRPNDVVVFHNSRIFGVGLAAMSGKEMAGSEKGIAINVKRKFSEGHHHHHH”, the protein production is reported as “not failed”.
For “MSLSASLGATRFRPDLLSLDDLDEAQLHALLTLAHQLKRGERVANLHGKVLGLVFLKASTRTRVSFTVAMYQLGGQVIDLSPSNTQVGRGEPVRDTARVLGRYVDGLAIRTFAQTELEEYAHYAGIPVINALTDHEHPCQVVADLLTIRENFGRLAGLKLAYVGDGNNVAHSLLLGCAKVGMSIAVATPEGFTPDPAVSARASEIAGRTGAEVQILRDPFEAARGAHILYTDVWTSMGQEAETQHRLQLFEQYQINAALLNCAAAEAIVLHCLPAHRGEEITDEVMEGPRSRIWDEAENRLHAQKAVLAALMGGREGHHHHHH”, the protein production was “not failed”.
